Laboratory results published in paper PMC10584130, “Effects of HSP70 chaperones Ssa1 and Ssa2 on Ste5 scaffold and the mating mitogen-activated protein kinase (MAPK) pathway in Saccharomyces cerevisiae” (PLOS ONE, 2023).

Target: T1, Ste5-Myc9 (S. cerevisiae, UniProt P32917 1-917)
T1 construct: Ste5 MAPK scaffold protein of S. cerevisiae; source: S. cerevisiae (EY1775 ste5 bar1; EY3136/EY3141), expressed from plasmids (pSKM19 2μ; pSKM90), in whole cell extract; not shown: Myc9, C-terminal, kept
T1 sequence (looked up): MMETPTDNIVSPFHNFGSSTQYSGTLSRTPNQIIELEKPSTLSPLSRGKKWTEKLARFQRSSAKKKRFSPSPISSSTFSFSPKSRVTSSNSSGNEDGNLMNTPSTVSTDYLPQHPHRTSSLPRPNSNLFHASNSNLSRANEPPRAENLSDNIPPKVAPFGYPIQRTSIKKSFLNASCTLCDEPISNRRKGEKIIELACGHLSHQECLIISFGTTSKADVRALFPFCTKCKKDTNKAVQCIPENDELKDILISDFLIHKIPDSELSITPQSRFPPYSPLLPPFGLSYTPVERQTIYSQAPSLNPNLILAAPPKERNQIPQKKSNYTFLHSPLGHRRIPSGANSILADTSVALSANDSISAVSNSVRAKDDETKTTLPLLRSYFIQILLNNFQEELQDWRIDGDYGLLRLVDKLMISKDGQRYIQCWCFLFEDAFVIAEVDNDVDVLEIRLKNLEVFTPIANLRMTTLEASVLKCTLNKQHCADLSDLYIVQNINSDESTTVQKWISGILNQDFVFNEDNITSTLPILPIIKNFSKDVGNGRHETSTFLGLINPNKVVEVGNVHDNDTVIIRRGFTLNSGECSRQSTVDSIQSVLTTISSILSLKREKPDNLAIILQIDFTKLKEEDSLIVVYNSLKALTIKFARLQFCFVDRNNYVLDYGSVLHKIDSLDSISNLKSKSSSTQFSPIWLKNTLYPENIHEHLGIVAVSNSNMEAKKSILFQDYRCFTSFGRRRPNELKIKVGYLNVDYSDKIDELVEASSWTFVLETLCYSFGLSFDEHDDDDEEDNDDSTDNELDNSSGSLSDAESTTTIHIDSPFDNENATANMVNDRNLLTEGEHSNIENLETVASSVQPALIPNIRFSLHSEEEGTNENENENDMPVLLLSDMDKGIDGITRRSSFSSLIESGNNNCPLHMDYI
Assay: affinity purification with mass spectrometry; Ste5-Myc9 IP'd with 9E10 from 10 mg yeast whole cell extract (EY1775, cells without or with 50 nM α factor for 2 hours); 20 mM Tris-HCl pH 7.2, 125 mM potassium acetate, 0.1% Tween 20; Coomassie-stained SDS gel, 70 kDa band digested with trypsin, LC-MS/MS; ImageJ densitometry of the gel
Details: partners not purified

B1: Hsp70 Ssa1 (endogenous) (natural protein)
chain: not shown
notes: Hsp70 chaperone Ssa1 of S. cerevisiae; also called 70 kDa protein; band a; source: endogenous, S. cerevisiae EY1775 whole cell extract
B1 was tested, and the “ratio Ste5-Myc9:70 kDa Hsp70 (Coomassie densitometry), with α factor” value was 0.67 and the “ratio Ste5-Myc9:70 kDa Hsp70 (Coomassie densitometry), without α factor” value was 1.45.
